# According to patent US20250289869:
# Assays:
# [1] = tested on: FVIII169/VWF057 heterodimer
# [2] = tested on: FVIII169/VWF059 heterodimer
# Chain of FVIII169/VWF059 heterodimer (chain, as listed by the source, chain 1 of 2): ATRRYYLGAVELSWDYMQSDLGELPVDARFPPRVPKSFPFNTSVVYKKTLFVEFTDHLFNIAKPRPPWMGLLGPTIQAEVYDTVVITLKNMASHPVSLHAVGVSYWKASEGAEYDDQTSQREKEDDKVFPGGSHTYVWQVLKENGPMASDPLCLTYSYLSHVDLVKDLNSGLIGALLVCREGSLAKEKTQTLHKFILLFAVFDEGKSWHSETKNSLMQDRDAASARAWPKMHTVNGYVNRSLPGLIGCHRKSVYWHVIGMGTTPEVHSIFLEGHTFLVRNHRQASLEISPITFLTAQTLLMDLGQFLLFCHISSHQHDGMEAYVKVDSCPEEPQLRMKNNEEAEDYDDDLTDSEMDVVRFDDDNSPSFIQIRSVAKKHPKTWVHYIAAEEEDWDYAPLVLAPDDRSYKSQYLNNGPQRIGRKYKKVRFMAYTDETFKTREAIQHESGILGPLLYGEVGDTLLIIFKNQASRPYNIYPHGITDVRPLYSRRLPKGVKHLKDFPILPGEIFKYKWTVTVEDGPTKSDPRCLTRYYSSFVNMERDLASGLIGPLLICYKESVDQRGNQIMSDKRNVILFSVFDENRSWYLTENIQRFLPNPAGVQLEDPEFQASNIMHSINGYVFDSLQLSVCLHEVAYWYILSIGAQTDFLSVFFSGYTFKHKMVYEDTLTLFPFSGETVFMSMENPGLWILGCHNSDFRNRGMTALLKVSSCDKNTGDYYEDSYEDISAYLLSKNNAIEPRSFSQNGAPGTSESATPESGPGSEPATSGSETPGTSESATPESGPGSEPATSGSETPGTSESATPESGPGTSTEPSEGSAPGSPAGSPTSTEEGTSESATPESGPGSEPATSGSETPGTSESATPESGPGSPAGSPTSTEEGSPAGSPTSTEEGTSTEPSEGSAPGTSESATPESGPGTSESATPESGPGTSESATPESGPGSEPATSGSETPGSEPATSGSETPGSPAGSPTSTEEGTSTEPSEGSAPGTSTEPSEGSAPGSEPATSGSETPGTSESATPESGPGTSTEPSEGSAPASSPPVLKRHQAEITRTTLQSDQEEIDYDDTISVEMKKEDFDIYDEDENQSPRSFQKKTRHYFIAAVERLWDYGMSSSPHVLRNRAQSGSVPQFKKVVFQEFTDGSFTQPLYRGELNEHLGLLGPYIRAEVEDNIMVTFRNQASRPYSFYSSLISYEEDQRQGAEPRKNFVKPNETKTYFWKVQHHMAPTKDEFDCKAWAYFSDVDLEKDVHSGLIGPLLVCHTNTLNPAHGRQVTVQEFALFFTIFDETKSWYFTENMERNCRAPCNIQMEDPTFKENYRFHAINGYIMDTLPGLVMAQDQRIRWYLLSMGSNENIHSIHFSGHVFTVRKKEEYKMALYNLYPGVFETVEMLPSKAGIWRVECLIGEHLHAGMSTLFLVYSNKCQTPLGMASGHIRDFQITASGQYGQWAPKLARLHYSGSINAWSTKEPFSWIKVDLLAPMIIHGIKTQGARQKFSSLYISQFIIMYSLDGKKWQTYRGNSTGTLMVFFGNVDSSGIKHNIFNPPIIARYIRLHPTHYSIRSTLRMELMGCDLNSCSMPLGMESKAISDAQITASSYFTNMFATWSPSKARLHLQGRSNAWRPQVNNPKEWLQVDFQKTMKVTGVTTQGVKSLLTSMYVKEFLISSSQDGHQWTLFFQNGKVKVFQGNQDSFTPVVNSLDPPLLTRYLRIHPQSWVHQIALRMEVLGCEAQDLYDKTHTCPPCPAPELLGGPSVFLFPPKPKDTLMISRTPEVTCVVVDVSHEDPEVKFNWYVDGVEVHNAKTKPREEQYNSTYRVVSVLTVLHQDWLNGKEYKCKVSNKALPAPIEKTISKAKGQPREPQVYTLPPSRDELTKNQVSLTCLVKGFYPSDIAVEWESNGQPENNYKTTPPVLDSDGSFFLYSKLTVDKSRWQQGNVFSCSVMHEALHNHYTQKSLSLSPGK
# Chain of FVIII169/VWF059 heterodimer (chain, as listed by the source, chain 2 of 2): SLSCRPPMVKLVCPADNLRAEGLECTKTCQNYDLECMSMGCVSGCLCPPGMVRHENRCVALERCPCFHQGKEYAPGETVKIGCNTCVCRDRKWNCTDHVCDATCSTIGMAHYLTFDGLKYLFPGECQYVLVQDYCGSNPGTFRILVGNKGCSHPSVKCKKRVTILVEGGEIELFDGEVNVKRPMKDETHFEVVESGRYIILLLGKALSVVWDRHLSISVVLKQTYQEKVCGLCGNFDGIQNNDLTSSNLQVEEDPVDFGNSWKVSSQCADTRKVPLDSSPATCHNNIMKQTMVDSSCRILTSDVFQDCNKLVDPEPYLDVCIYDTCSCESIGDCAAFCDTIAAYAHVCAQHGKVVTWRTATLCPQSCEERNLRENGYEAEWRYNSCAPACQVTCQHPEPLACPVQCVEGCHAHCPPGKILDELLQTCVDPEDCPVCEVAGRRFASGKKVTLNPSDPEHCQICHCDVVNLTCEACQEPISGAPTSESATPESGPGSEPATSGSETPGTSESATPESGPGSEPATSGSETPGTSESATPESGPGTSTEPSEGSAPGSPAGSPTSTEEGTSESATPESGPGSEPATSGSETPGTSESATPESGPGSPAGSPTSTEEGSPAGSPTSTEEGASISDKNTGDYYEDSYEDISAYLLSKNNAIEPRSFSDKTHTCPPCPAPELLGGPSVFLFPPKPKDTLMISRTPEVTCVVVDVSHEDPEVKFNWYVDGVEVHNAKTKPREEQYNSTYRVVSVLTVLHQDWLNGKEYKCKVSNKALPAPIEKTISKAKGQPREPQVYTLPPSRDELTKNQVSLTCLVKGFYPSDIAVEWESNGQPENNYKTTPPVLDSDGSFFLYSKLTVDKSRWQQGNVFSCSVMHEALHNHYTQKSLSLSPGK
# Chain of FVIII169/VWF057 heterodimer (chain, as listed by the source, chain 1 of 2): as the sequence (chain, as listed by the source, chain 1 of 2) above
# Chain of FVIII169/VWF057 heterodimer (chain, as listed by the source, chain 2 of 2): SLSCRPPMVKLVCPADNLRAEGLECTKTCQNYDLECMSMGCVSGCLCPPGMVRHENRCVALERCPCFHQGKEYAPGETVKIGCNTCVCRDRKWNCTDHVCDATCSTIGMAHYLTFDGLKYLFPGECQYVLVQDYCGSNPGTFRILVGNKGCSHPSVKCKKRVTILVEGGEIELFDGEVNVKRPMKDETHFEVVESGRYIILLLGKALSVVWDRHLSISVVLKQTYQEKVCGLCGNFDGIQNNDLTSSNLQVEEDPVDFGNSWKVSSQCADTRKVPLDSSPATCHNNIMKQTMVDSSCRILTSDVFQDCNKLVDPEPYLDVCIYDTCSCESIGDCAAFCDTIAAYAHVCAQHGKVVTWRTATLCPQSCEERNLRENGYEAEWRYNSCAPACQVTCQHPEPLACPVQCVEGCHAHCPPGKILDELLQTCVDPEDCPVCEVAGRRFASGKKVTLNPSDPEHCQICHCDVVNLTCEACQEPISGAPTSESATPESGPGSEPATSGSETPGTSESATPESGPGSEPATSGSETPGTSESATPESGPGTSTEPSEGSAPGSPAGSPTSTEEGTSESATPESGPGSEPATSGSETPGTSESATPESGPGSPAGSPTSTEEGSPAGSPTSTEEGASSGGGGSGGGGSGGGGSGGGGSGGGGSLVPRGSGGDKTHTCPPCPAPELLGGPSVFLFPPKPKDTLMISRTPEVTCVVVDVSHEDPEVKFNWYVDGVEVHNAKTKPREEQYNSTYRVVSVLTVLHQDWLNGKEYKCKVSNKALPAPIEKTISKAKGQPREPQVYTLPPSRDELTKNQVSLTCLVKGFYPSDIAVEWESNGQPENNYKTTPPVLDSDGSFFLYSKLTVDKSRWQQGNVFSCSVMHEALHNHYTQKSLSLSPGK
substance,measurement,setting,value
human α-thrombin,"thrombin digestion, release of D′D3 from Fc (SDS-PAGE / western blot time course, FVIII:thrombin about 22:1, 37° C.)",[1],Un-cleaved FVIII169/VWF057 remained after 15 minutes
same,thrombin cleavage by mass spectroscopy (MS),[2],"By MS, FVIII 169/VWF059 again showed better release of D′D3 from Fc as compared to VWF057"
same,"thrombin digestion, release of D′D3 from Fc (SDS-PAGE / western blot time course, FVIII:thrombin about 22:1, 37° C.)",[2],little to no detectable un-cleaved FVIII 169/VWF059 after 5 minutes
